The values below come from US20170267768A1 (University of California, published 2017).

Positions count from the first letter of the chain named.

In assay [1] the target is T1, His6-tagged recombinant human EphA2 protein (human, UniProt P29317 25-534).
T1 construct: also called his-tagged recombinant, human EphA2; human EphA2 with c-terminal His6
Briefly: BLI (Octet Red 96); His6-EphA2 on anti-His sensors; scFv-PEG-DSPE conjugate at 2.5 ug/ml after thermal stress. An excerpt:
(§1) A nucleic acid encoding human EphA2 with c-terminal His6 appended was cloned into expression vector pCEP4 (Invitrogen® # V044-50) and transiently expressed in FreeStyle™ 293 cells (Invitrogen® #K900001) following polyethylenenimine transfection. The His6-tagged recombinant human EphA2 protein was purified from the cell culture medium using Ni-NTA Sepharose™ resin (Quiagen®, USA). Anti-His sensors for the fortéBIO® Octet Red 96 system (fortéBIO®-Pall® #18-5116) were coated with his-tagged recombinant, human EphA2 at concentration of 10 μg/ml protein for 300 sec, and a background run was carried out in PBS for 60 sec. For scFv-PEG-DSPE conjugates, the sensors were then incubated with 2.5 μg/ml (Study 1) or 4.0 μg/ml (Study 2) of the conjugate in PBS, pH 7.4, and the slopes of association curves were determined between 3-13 seconds of incubation, corrected for the buffer-only background, and compared across the variants. ScFv-linked liposomes were incubated with the sensors in PBS at 0.025 mM of liposome phospholipid, the slopes of the association curves were determined between 3-20 seconds of incubation, corrected for the buffer-only background, and compared across the variants.
(§2) Results are shown below in Table 6, in which column A gives scFv identifiers; column B indicates percent yield of scFv/lipopolymer linker conjugates; column C gives percent scFv-conjugate (not liposome-bound) EphA2 binding on-rate; column D gives percent scFv-conjugated-liposome EphA2 binding on-rate; and columns E (Study 1) and F (study 2) give percent antigen binding on-rate remaining in the scFv-conjugate (not liposome-bound) following thermal stress.

Assay [2] addresses T1, His6-tagged recombinant human EphA2 …. The assay can be described thus: BLI (Octet Red 96); His6-EphA2 on anti-His sensors; scFv-PEG-DSPE conjugate at 4.0 ug/ml after thermal stress.
Description: as §1, §2

Assay [3] has as its target T2, Staphylococcus aureus Protein A (Staphylococcus aureus, UniProt P38507 37-477). Briefly: Protein A binding measured as in Example 1; TS1C is the reference. How it is done:
Protein A binding for multiple samples was determined as follows: scFvs expressed by mammalian cells were obtained from cultures by centrifugation at 4000 g for 15 minutes to remove cells. The scFv titer in the supernatant was determined using Fortebio. Protein A binding was assayed using a 96 well Protein A plate (Protein A 96 well protein purification plate (GE Healthcare: Life Sciences, Protein A HP MultiTrap®) which contains Protein A-conjugated resin in wells with porous bottoms, allowing liquid in the wells to be collected from underneath via centrifugation or suction. Each well of the plate was washed with 1×PBS, and supernatant containing 250 μg of protein was loaded into each well. The supernatant is then separated from the Protein A resin using a vacuum manifold (Whatman®) with 10 mbar of pressure and the flow-through from each well separately collected into empty wells of a standard 96 well plate. The wells of the Protein A plate were then washed with 600 μL of 1×PBS (pH 7.6). To elute the resin-bound Ab, 200 μL of 0.1M acetic acid was added to each well and incubated at room temperature for 3-10 minutes. […]
(§3) The fold improvement in Protein A binding capacity (as compared to TS1C) was measured as described in Example 1.

Assay [4] addresses T1, His6-tagged recombinant human EphA2 …. The assay can be described thus: BLI (Octet Red 96); His6-EphA2 on anti-His sensors; slope of association curve of scFv-PEG-DSPE conjugate; TS1C printed as 100.
Description: as §1, §2

The target is the same in assay [5]. The assay can be described thus: BLI (Octet Red 96); His6-EphA2 on anti-His sensors; slope of association curve of scFv-linked liposomes at 0.025 mM phospholipid; TS1C printed as 100.
Description: as §1, §2

For assay [6], the target named is T2, Staphylococcus aureus Protein A. The assay can be described thus: Protein A binding measured as in Example 1, compared to TS1C. Here is the method:
Protein A binding for multiple samples was determined as follows: scFvs expressed by mammalian cells were obtained from cultures by centrifugation at 4000 g for 15 minutes to remove cells. The scFv titer in the supernatant was determined using Fortebio. Protein A binding was assayed using a 96 well Protein A plate (Protein A 96 well protein purification plate (GE Healthcare: Life Sciences, Protein A HP MultiTrap®) which contains Protein A-conjugated resin in wells with porous bottoms, allowing liquid in the wells to be collected from underneath via centrifugation or suction. Each well of the plate was washed with 1×PBS, and supernatant containing 250 μg of protein was loaded into each well. The supernatant is then separated from the Protein A resin using a vacuum manifold (Whatman®) with 10 mbar of pressure and the flow-through from each well separately collected into empty wells of a standard 96 well plate. The wells of the Protein A plate were then washed with 600 μL of 1×PBS (pH 7.6). To elute the resin-bound Ab, 200 μL of 0.1M acetic acid was added to each well and incubated at room temperature for 3-10 minutes. The plate was placed over a second plate to capture eluate and centrifuged at 100×g for 2 minutes, and 20 μL of 1M Tris, pH 8.0 was added to neutralize the Abs in the eluate. To determine the percentage of Protein A binding, the concentration of scFv remaining in the flow-through was compared to the amount of protein (250 ug) loaded originally.
as §3

Assay [7] has as its target T3, murine EphA2 on CT-26 cells (mouse, UniProt Q03145 26-977).
T3 construct: whole, on cells
Briefly: CLIA: scFv-decorated fluorescent NTA(Ni) liposomes on CT-26 cells, FACS. How it is done: The concentration of liposomal phospholipid was then determined after acid digestion using spectrophotometric phosphomolybdate method. Prior to incubation with cells the liposomes were diluted to 0.4 mM phospholipid in Hank's Balanced Salt Solution (HBSS), and NiSO₄ was added to 0.1 mM. The hexahistidine scFvs were diluted into cell culture medium (see below) to the concentration of 25 μg/mL of scFv and mixed with equal volume of the liposome solution (“fluorescent NTA-liposome/scFv mixture”).
By measuring fluorescence of the cells prior to and after incubation/wash with imidazole, which disrupts His6/Ni complexes and thereby releases and removes external (but not internalized) histidine-tagged scFv, the percentage of Ab internalized is quantitated. The test cells (human cancer cell lines OVCAR-3 and U-251 and the murine cancer cell line CT-26) were grown in the adherent state in […] cell culture medium supplemented with 10% FBS, 1× penicillin/streptomycin, and L-glutamine, to 90% confluence and harvested using 0.25% trypsin-EDTA. […] The relative amounts of cell-associated liposomes were evaluated by FACS (Cy5 fluorescence channel). The “binding” amount included both cell surface-bound and internalized liposomes and was proportional to cell fluorescence without imidazole wash. […]

Assay [8] deals with T4, human EphA2 on OVCAR-3 and U-251 cells (human, UniProt P29317 24-976).
T4 construct: whole, on cells; also called EphA2 receptors
Briefly: CLIA: scFv-decorated fluorescent NTA(Ni) liposomes on OVCAR-3 and U-251 cells, FACS. Here is the method:
To test the anti-EphA2 activity of these variant scFvs, the binding and internalization of liposomes externally decorated with these Abs was assayed on cell lines expressing EphA2. A rapid high-throughput Chelated Ligand-induced Internalization Assay (CLIA) (Nielsen et al., BMC immunology, 2006, 7:24) was used to screen anti-EphA2-scFv-targeted liposomes for binding and internalization assessment. Two cell lines that express high levels of EphA2 receptors, OVCAR-3 and U-251, were tested, as well as a murine EphA2-expressing mouse cell line, CT-26 (to test whether cross-reactivity to murine EphA2 was retained by the engineered scFvs). Via nickel-binding by each scFv's c-terminal His6 tag, the scFvs were bound to fluorescently labeled liposomes comprising an NTA(Ni) conjugated lipid (Dil5-NTA liposomes).
Dil5-NTA liposomes were prepared as follows. The NTA conjugated lipid, DOD-Tri-NTA, was synthesized as described in Huang et al., Bioconjugate chemistry, 2006, vol. 17, p. 1592-1600. […] The concentration of liposomal phospholipid was then determined after acid digestion using spectrophotometric phosphomolybdate method.

T1 sequence (P29317 25-534 limits assumed): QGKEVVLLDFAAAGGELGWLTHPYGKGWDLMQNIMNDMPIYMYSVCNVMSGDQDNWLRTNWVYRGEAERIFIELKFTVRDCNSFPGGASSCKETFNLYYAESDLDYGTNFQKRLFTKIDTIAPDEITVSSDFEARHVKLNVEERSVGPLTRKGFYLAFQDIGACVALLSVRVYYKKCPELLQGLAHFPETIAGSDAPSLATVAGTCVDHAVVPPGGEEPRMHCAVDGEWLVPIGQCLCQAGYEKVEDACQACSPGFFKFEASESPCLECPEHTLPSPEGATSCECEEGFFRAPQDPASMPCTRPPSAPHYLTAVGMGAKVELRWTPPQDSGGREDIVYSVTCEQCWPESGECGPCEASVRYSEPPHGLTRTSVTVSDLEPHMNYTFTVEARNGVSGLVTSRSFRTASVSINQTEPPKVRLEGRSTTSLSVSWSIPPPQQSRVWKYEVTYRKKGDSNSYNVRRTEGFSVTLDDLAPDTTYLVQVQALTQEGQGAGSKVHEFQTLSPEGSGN
T3 sequence (Q03145 26-977): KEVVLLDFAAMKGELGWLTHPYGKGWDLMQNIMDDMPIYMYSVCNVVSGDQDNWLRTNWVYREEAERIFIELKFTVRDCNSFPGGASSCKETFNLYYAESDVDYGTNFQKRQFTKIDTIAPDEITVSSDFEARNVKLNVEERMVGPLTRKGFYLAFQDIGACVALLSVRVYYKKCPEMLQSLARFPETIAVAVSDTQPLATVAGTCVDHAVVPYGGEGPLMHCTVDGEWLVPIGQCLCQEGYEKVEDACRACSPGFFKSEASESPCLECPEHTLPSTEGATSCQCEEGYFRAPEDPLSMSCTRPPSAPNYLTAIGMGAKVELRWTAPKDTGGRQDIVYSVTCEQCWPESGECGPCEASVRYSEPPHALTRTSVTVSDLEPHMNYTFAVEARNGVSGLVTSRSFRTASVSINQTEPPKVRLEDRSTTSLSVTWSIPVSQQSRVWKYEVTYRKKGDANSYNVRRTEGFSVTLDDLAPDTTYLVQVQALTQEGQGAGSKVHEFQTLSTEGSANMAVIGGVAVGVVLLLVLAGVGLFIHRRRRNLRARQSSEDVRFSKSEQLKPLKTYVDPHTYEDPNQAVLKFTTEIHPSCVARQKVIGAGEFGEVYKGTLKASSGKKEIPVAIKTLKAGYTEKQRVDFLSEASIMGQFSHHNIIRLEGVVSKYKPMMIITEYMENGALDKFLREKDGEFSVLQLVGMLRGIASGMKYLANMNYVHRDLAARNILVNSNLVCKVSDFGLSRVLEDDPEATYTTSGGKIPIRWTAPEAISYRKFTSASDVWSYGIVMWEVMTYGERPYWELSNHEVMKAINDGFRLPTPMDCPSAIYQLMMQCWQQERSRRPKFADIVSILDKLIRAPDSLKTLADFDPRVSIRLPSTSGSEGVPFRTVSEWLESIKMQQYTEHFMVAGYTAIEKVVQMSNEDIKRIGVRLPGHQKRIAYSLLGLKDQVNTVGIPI
T4 sequence (P29317 24-976): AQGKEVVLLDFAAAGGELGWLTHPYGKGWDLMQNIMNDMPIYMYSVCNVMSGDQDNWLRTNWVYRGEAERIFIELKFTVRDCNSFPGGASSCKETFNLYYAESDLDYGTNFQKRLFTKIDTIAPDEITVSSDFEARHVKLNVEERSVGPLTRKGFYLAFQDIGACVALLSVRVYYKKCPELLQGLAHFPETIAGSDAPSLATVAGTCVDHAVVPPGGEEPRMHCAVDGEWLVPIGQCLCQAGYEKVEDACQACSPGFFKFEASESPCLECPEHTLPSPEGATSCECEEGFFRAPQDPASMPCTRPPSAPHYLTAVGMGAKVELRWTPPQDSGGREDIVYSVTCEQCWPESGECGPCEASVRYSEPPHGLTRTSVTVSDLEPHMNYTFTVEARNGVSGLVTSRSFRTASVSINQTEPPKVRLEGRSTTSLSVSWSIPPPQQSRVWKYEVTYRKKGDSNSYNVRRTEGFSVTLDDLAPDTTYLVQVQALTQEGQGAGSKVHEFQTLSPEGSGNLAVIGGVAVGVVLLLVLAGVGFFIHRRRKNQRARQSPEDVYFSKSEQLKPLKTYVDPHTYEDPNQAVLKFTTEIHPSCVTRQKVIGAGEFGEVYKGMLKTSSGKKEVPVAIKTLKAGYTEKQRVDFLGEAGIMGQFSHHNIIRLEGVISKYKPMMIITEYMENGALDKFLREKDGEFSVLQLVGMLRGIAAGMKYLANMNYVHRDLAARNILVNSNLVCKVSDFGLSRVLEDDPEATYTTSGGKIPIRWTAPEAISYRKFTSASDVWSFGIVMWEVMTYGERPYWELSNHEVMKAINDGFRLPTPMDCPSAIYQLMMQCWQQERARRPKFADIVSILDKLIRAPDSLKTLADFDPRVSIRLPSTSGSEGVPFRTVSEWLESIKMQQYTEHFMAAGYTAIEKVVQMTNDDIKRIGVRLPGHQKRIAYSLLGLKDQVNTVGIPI

B1: TS1C (scFv)
scFv: QVQLVQSGGGLVQPGGSLRLSCAASGFTFSSYAMHWVRQAPGKGLEWVAVISYDGSNKYYADSVKGRFTISRDNSKNTLYLQMNSLRAEDTAVYYCARASVGATGPFDIWGQGTLVTVSSASTGGGGSGGGGSGGGGSGGGGSSSELTQPPSVSVAPGQTVTITCQGDSLRSYYASWYQQKPGTAPKLLIYGENNRPSGVPDRFSGSSSGTSASLTITGAQAEDEADYYCNSRDSSGTHLTVFGGGTKLTVLGGGSGGC
notes: also called parental clone TS1 (C form)
Regarding B1, in assay [1], the “percent antigen binding on-rate remaining in the scFv-conjugate following thermal stress (Study 1)” value was 25.2%. Further, the “percent antigen binding on-rate remaining in the scFv-conjugate following thermal stress (Study 2)” value in assay [2] amounted to 13%. Besides, the “Fold Improvement in Protein A Binding Capacity” value (shortened to “Fold Improvement”) in assay [3] was found to be 1 fold. Also, the “percent scFv-conjugate (not liposome-bound) EphA2 binding on-rate” value in assay [4] stood at 100%. The “percent scFv-conjugated-liposome EphA2 binding on-rate” value in assay [5] turned out to be 100%.

B2: scFv-2C (scFv)
scFv: B1 scFv with A49S, Y53P, D54A, S56R
notes: also called clone 2
For B2, in assay [1], the “percent antigen binding on-rate remaining in the scFv-conjugate following thermal stress (Study 1)” value was 44.6%. The “percent antigen binding on-rate remaining in the scFv-conjugate following thermal stress (Study 2)” value in assay [2] came to 26.9%. In addition, the “percent scFv-conjugate (not liposome-bound) EphA2 binding on-rate” value in assay [4] came to 105%. The “Fold Improvement” value in assay [6] amounted to 5.5 fold. Moreover, the “percent scFv-conjugated-liposome EphA2 binding on-rate” value in assay [5] worked out at 117%.

B3: scFv-4C (scFv)
scFv: B1 scFv with A49T, Y53P, D54H, S56R
notes: also called clone 4
For the molecule B3, the “percent antigen binding on-rate remaining in the scFv-conjugate following thermal stress (Study 1)” value in assay [1] amounted to 8.6%. The “percent antigen binding on-rate remaining in the scFv-conjugate following thermal stress (Study 2)” value in assay [2] was found to be 5.6%. For the same molecule, in assay [4], the “percent scFv-conjugate (not liposome-bound) EphA2 binding on-rate” value worked out at 97.3%. The “Fold Improvement” value in assay [6] stood at 5.8 fold. Moreover, the “percent scFv-conjugated-liposome EphA2 binding on-rate” value in assay [5] came to 118%.

B4: scFv TS1 (scFv)
scFv: QVQLVQSGGGLVQPGGSLRLSCAASGFTFSSYAMHWVRQAPGKGLEWVAVISYDGSNKYYADSVKGRFTISRDNSKNTLYLQMNSLRAEDTAVYYCARASVGATGPFDIWGQGTLVTVSSASTGGGGSGGGGSGGGGSGGGGSSSELTQPPSVSVAPGQTVTITCQGDSLRSYYASWYQQKPGTAPKLLIYGENNRPSGVPDRFSGSSSGTSASLTITGAQAEDEADYYCNSRDSSGTHLTVFGGGTKLTVLG
Turning to B4, the binding result in assay [7] and in assay [8] was “binds” each time.

B5: scFv-12 (scFv)
scFv: B4 scFv with V50G, Y53H, D54P, S56D, K58T
As to B5, the binding result in assay [7] was “no binding”.
